Results published in patent US20250332265A1, “PSMA TARGETED CONJUGATE COMPOUNDS AND USES THEREOF” (priority 2021, published 2025).

Experiments:
[1] = system: PC3pip tumors; assay: In vivo antitumor efficacy studies with PDT; parameters: species or system mice
Experimental: The effect of PSMA-1-MMAE-IR700 were tested in mice bearing PC3pip tumors. Animals with tumor size at about 100 mm3 were used for the study (tumor volume=Length×width2/2). Animals were divided into 7 groups: (1) mice receiving PBS; (2) mice receiving 100 nmol/kg PSMA-1-MMAE-IR700 with PDT; (3) mice receiving equal doses of PSMA-1-MMAE-IR700 to group 2, but not receiving PDT; (4) Mice receiving equal doses of PSMA-1-IR700 to group 2 with PDT treatment; (5) Mice receiving equal doses of PSMA-1-IR700 to group 2 without PDT; (6) mice receiving equal doses of PSMA-1-IR700 to group 2+free MMAE with PDT (MMAE normalized to that delivered by PSMA-1-MMAE-IR700); and (7) mice receiving equal doses of PSMA-1-IR700 to group 2+free MMAE without PDT. Each group had 5 mice. Animals received drugs through tail vein injection on day 0, 4, 8, 12 and 16 and treated with 50 J/cm2 of 690 nm light at 1 h post-injection on these injection days. The dose and schedule was based on previous PSMA-1-VcMMAE work and were not optimized. Animals were imaged before and after PDT. Mice were monitored every other day for 90 days. Animals were euthanized when tumors became too large (diameter >20 mm) or animals were moribund. Data were reported as body weight over time, tumor size over time and Kaplan-Meier survival plots.

[2] = Pharmacokinetic studies based on fluorescence; assay type: in vivo, mice; conditions: after 4 h post injection almost all drug was cleared
Text: Prostate cancer is highly heterogeneous, which will affect treatment response, drug resistance and clinical outcome. The use of combination therapies with different mechanisms of action will offer potential advantages over a single therapy and it can be an effective way to deal with the ‘heterogeneity’ of cancer cells. […] The use of anticancer drugs is therefore limited by unwanted side effects. To overcome these problems, we have developed a multifunctional molecule named PSMA-1-MMAE-IR700 that combines chemotherapy, PDT, and imaging in a single molecule that is targeted to PSMA. PSMA is over expressed almost exclusively on prostate cancer (FIG. 6A). MMAE was selected as the chemotherapeutic drug because of its high potency, its wide use in antibody drug conjugates, its synergy with PDT and the fact that we have successfully targeted it to PSMA for the treatment of prostate cancer with a greater therapeutic index when compared to a PSMA-targeted antibody drug conjugate using MMAE. IR700 was selected as the photosensitizer due to its good water-solubility, its high fluorescence quantum yield and singlet oxygen yield, its long wavelength absorption (690 nm), and the fact that a cetuximab-IR700 conjugate (RM-1929) has been approved in Japan for local regional treatment of head and neck cancer. […] The fluorescence from IR700 allowed visualization of uptake studies of PSMA-1-MMAE-IR700. […]

[3] = biological target: T1, human liver cathespin (Homo sapiens, UniProt P07858); assay: Cathepsin cleavage studies, Example 2; assay type: in vitro ADME; conditions: 37° C., HPLC
T1 construct: purchased Anthens Research and Technology, Anthens, GA; host or cells: human liver (tissue-derived enzyme)
Experimental: Enzymatic cleavage study of PSMA-1-MMAE-IR700 was performed as previously described. PSMA-1-MMAE-IR700 was incubated with activated human liver cathespin (Anthens Research and Technology, Anthens, GA) at 37° C. At different incubation time, 40 μL of the solution was placed into tubes loaded with 1 μL of 1 mM E64 protease inhibitor. The mixture was vortexed and then stored at −80° C. for future HPLC analysis. Studies were performed in triplicate. In vitro cellular uptake studies cells were plated on coverslips at about 60-70% confluency. Twenty-four hours later, cells were incubated with 50 nM of PSMA-1-MMAE-IR700. After incubation for various times (15 min, 30 min, 1 h and 4 h), cells were washed twice with cold RPMI 1640, fixed with 4% paraformaldehyde and counterstained with 4′,6-diamidino-2-phenylindole (DAPI). Images were taken using a Leica DM4000B fluorescence microscope (Leica Biosystems, Buffalo Gove, IL) at 40×. Blocking experiments were performed by co-incubation of cells with 50 nM of PSMA-1-MMAE-IR700 and 100× of PSMA-1 ligand. Studies were performed in triplicate.

[4] = system: PC3pip and PC3flu tumors; assay: In vivo fluorescence imaging studies, heterotopic tumors; parameters: species or system mice
Experimental: Animal experiments were approved by the animal care and use committee at Case Western Reserve University (IACUC #150033). Six to eight-week-old male Balb/c athymic nude mice (Jackson Laboratory, Bar Harbor, ME) were implanted subcutaneously with 1×10^6 of PC3pip (right flank) and PC3flu (left flank) cells in 100 μl of matrigel. Animals were ready to use when tumor diameter reached 10 mm, about two weeks. Animals received 100 nmol/kg of PSMA-1-MMAE-IR700 through tail vein injection and were imaged at different time points by Maestro In vivo Image System (Perkin Elmer, Waltham, MI) using the yellow filter set (excitation 575-605 nm, emission 645 nm longpass). During imaging, mice were anesthetized by isoflurane. At 48 h post injection, mice were sacrificed and tissues such as heart, lung, liver, kidneys, stomach, tumors were harvested for ex vivo imaging. Multispectral images were unmixed into their component spectra and average fluorescence signals were quantified by creating regions of interest. Experiments were performed in 5 mice.

[5] = Stability in mouse plasma; assay type: in vitro ADME
Text: To synthesize PSMA-1-MMAE-IR700 (FIG. 6A), we used a self-immolative cathespsin cleavable Vc linker to conjugate MMAE to PSMA-1-Cys-C6-Lys. IR700 was conjugated to the PSMA-1 ligand through reaction of the Lys amine (—NH2) with NHS ester as no IR700 release is required for light activation. […] Degradation of PSMA-1-MMAE-IR700 led to release of free MMAE.

[6] = 4 h post injection, 100 nmol/kg
[7] = 48 h post injection, 100 nmol/kg

Structure (SMILES): CC[C@H](C)[C@@H]([C@@H](CC(=O)N1CCC[C@H]1[C@H](OC)[C@@H](C)C(=O)N[C@H](C)[C@@H](O)c1ccccc1)OC)N(C)C(=O)[C@@H](NC(=O)[C@H](C(C)C)N(C)C(=O)OCc1ccc(NC(=O)[C@H](CCCNC(N)=O)NC(=O)[C@@H](NC(=O)CCCCCN2C(=O)CC(SC[C@H](NC(=O)[C@H](CCC(=O)O)NC(=O)[C@H](CCC(=O)O)NC(=O)[C@H](CCC(=O)O)NC(=O)CCCCCNC(=O)[C@H]3CC[C@H](CNC(=O)CC[C@H](NC(=O)N[C@@H](CCC(=O)O)C(=O)O)C(=O)O)CC3)C(=O)NCCCCCC(=O)N[C@@H](CCCCNC(=O)CCCCCNC(=O)OCCCOc3cccc4c5n6c(c34)=NC3=NC(=Nc4c7ccccc7c(n4[Si]6(O[Si](C)(C)CCC[N+](CCCS(=O)(=O)[O-])(CCCS(=O)(=O)O)CCCS(=O)(=O)O)O[Si](C)(C)CCC[N+](CCCS(=O)(=O)[O-])(CCCS(=O)(=O)O)CCCS(=O)(=O)O)N=C4N=C(N=5)c5ccccc54)c4ccccc43)C(N)=O)C2=O)C(C)C)cc1)C(C)C (stereo partly shown) [PSMA-1-MMAE-IR700]
- tumor growth, with light irradiation (PDT) ([1]; 100 nmol/kg every 4 days, 5 doses, 50 J/cm^2 of 690 nm light): greatest tumor growth inhibition
- tumor growth, no light treatment ([1]; 100 nmol/kg every 4 days, 5 doses, no light): significantly inhibited tumor growth
- cure rate for tumors ([1]; 100 nmol/kg with light irradiation, 90-day period): 60%
- histological analysis of major organs on day 30 ([1]; liver, lung, heart, spleen, kidney, salivary gland and prostate): did not cause systemic toxicity
- body weight loss ([1]; treatment groups): did not cause any body weight loss
- clearance from the blood [2]: cleared quickly from the blood
- degradation in the presence of cathepsin [3]: degraded rapidly
- time to reach peak uptake in PC3pip tumors ([4]; 100 nmol/kg i.v.): 1 h
- fluorescence signal PC3pip versus PC3flu tumor ([4]; 4 h post injection): 3.8 fold
- fluorescence signal in PC3flu tumor [4, 6]: 5.2±1.5 counts
- fluorescence signal in PC3pip tumor [4, 6]: 19.6±4.4 counts
- fluorescence signal PC3pip versus PC3flu tumor ([4]; 48 h post injection): 2.9 fold
- fluorescence signal in PC3flu tumors [4, 7]: 3.3±1.3 counts
- fluorescence signal in PC3pip tumors [4, 7]: 9.6±2.1 counts
- fluorescent signal in PC3pip tumor versus kidneys, liver and other organs ([4]; ex vivo, 48 h post injection): more than 3 fold
- half-life [5]: 17.2 ± 2.8 h
